From PMC5016258
pKd: −log10 of the molar value.

How the values were obtained:
[1] = target: B2R-MasR heteromer on cells co-transfected with B2R-CFP and MasR-YFP (UniProt P30411); assay: radioligand binding
[2] = target: Angiotensin-(1-7) Mas receptor fused to enhanced yellow fluorescent protein (UniProt P04201); assay: radioligand binding
Chain of UniProt P04201 (P04201 whole entry, the tested form may be a part): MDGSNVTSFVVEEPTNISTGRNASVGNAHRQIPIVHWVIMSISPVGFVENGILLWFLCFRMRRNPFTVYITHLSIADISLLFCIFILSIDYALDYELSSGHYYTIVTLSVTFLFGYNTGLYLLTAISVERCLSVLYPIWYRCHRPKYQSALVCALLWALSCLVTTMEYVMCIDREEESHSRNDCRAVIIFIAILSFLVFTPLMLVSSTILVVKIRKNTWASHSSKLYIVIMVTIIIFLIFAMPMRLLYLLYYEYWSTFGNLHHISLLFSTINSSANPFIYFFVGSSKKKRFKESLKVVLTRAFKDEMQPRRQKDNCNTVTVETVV

Chain of UniProt P30411 (P30411 whole entry, chain 1 of 2, the tested form may be a part): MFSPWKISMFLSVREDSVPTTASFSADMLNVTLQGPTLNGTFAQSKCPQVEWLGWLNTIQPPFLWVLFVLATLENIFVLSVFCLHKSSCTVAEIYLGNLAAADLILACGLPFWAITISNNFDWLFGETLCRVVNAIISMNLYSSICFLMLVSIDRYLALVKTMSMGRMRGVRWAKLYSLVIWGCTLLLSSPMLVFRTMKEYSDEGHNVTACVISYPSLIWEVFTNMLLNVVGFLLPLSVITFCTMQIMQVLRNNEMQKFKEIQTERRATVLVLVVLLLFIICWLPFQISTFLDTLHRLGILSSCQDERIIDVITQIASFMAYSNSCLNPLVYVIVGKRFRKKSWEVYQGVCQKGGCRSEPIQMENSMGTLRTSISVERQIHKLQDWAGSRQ
Chain of UniProt P30411 (P04201 whole entry, chain 2 of 2, further chain, the tested form may be a part): as the sequence (P04201 whole entry, the tested form may be a part) above

pKd [1]: 9.86
pKd [2]: 8.94
Substance: Angiotensin-(1-7) (peptide)
